± gives the uncertainty stated by the source.
Assay: self-splicing fitness, log relative to wild type (ln ratio); higher = more splicing; Tetrahymena group I intron in knt gene, E. coli kanamycin selection, DiMSum; sequences stand for … in CUCUCU…GGAGGGAAAAGUUAUCAGGCAUGCACCUGGUAGCUAGUCUUUAAACCAAUAGAUUGCAUCGGUUUAAAAGGCAAGACCGUCAAAUUGCGGGAAAGGGGUCAACAGCCGUUCAGUACCAAGUCUCAGGGGAAACUUUGAGAUGGCCUUGCAAAGGGUAUGGUAAUAAGCUGACGGACAUGGUCCUAACCACGCAGCCAAGUCCUAAGUCAACAGAUCUUCUGUUGAUAUGGAUGCAGUUCACAGACUAAAUGUCGGUCGGGGAAGAUGUAUUCUUCUCAUAAGAUAUAGUCGGACCUCUCCUUAAUGGGAGCUAGCGGAUGAAGUGAUGCAACACUGGAGCCGCUGGGAACUAAUUUGUAUGCGAAAGUAUAUUGAUUAGUUUUGGAGUACUCGUGGUCG
Outline: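 Six replicate transformations of E. coli BL21(DE3) with a pET-22b(+) library were grown overnight at 37°C or 30°C. The library randomised all eight P1ex-region intron nucleotides, the intron lying in the knt kanamycin-resistance gene, and plates were LB agar with or without 25 μg/mL kanamycin plus 100 μg/mL carbenicillin, 50 μM IPTG and 0.2% rhamnose. Pooled colonies were amplicon-sequenced on an Illumina HiSeq 2500, and fitness is the DiMSum error-weighted combination of wild-type-normalised replicate fold changes, kanamycin versus none.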

| Sequence | self-splicing fitness (ln) (30 °C) | self-splicing fitness (ln) (37 °C) |
| --- | --- | --- |
| ACCUAGCAAUAUUACGGUCG | -3.53 ± 0.17 | -2.11 ± 0.14 |
| CUUUAGCAAUAUUACGUAGU | -3.52 ± 0.2 | -2.2 ± 0.22 |
| ACUCAGCAAUAUUACGAAAG | -1.78 ± 0.12 | -1.42 ± 0.15 |
| AUCGAGCAAUAUUACGUGAA | -2.75 ± 0.14 | -1.83 ± 0.16 |
| GGCCAGCAAUAUUACGAAAA | -2.32 ± 0.24 | -2.23 ± 0.46 |
| GUUCAGCAAUAUUACGAAUC | -3.73 ± 0.24 | -2.29 ± 0.33 |
| UAUCAGCAAUAUUACGUACU | -1.57 ± 0.089 | -0.383 ± 0.1 |
| UGUAAGCAAUAUUACGUCCG | -0.161 ± 0.12 | 0.473 ± 0.12 |
| CUGGAGCAAUAUUACGUAGC |  | -2.38 ± 0.32 |
| GCUCAGCAAUAUUACGUCUA | -0.844 ± 0.1 | -0.494 ± 0.097 |
| CAAGAGCAAUAUUACGGAAU | -3.66 ± 0.26 | -2.42 ± 0.23 |
| GGUUAGCAAUAUUACGUGAA | -0.107 ± 0.13 | -0.9 ± 0.14 |
| CAAUAGCAAUAUUACGUUGG | -1.9 ± 0.099 | -1.3 ± 0.11 |
| GUCAAGCAAUAUUACGCCAU | -4.64 ± 0.42 | -3.01 ± 0.18 |
| GUAAAGCAAUAUUACGAUGG | -1.81 ± 0.081 | -0.952 ± 0.1 |
| CAUAAGCAAUAUUACGAUGG | 0.0378 ± 0.065 | -0.159 ± 0.093 |
| AGCCAGCAAUAUUACGUAUU | -3.72 ± 0.13 | -2.05 ± 0.12 |
| CAACAGCAAUAUUACGUAUU | -3.48 ± 0.17 | -1.58 ± 0.11 |
| CUAAAGCAAUAUUACGACUU | -3.45 ± 0.2 | -3.47 ± 0.39 |
| ACUUAGCAAUAUUACGGUUA | -1.27 ± 0.17 | -0.752 ± 0.15 |
| UAUGAGCAAUAUUACGCCAA |  | -2.51 ± 0.37 |
| CCGUAGCAAUAUUACGGUAG | -3.48 ± 0.2 | -2.97 ± 0.24 |
| GCGUAGCAAUAUUACGGACA | -1.31 ± 0.17 | -0.534 ± 0.13 |
| UGGCAGCAAUAUUACGUUCU | 0.076 ± 0.06 | 0.0497 ± 0.069 |
| AACUAGCAAUAUUACGACAG | -1.7 ± 0.14 | -0.514 ± 0.13 |

| Sequence | self-splicing fitness (ln) (30 °C) | self-splicing fitness (ln) (37 °C) |
| --- | --- | --- |
| GCAUAGCAAUAUUACGGGAA | -2.52 ± 0.21 | -0.707 ± 0.12 |
| UAGUAGCAAUAUUACGUCCA | -0.915 ± 0.37 |  |
| ACACAGCAAUAUUACGACGU | -0.452 ± 0.048 | 0.722 ± 0.073 |
| UGGAAGCAAUAUUACGUCUG | -2.56 ± 0.25 | -1.52 ± 0.2 |
| ACACAGCAAUAUUACGAGCC | -1.97 ± 0.17 | -0.179 ± 0.19 |
| UGCUAGCAAUAUUACGAGUU | -1.64 ± 0.11 | 0.518 ± 0.12 |
| UGAGAGCAAUAUUACGGCAU | -2.88 ± 0.23 | -2.85 ± 0.33 |
| CUGCAGCAAUAUUACGGUCG | -0.487 ± 0.077 | 0.0459 ± 0.09 |
| AAUUAGCAAUAUUACGGUUA | -0.622 ± 0.11 | -0.183 ± 0.099 |
| AGGUAGCAAUAUUACGCGUG | -1.485 ± 0.013 | -0.784 ± 0.032 |
| CGGUAGCAAUAUUACGCAAU |  | -3.67 ± 0.46 |
| UUUAAGCAAUAUUACGCGUA | -1.4 ± 0.14 | -0.828 ± 0.13 |
| GUAGAGCAAUAUUACGCAGG | -1.51 ± 0.15 | -1.59 ± 0.15 |
| CUAGAGCAAUAUUACGCGGC | -0.707 ± 0.19 | 0.756 ± 0.2 |
| GUCAAGCAAUAUUACGCUAG | -2.83 ± 0.15 | -2 ± 0.14 |
| GUCGAGCAAUAUUACGAUCC | -1.82 ± 0.17 | -0.489 ± 0.22 |
| CCUUAGCAAUAUUACGGAGC | -3.54 ± 0.34 | -2.4 ± 0.25 |
| CCCAAGCAAUAUUACGAUGU | -3.53 ± 0.18 | -2.04 ± 0.15 |
| UAUCAGCAAUAUUACGGUAA | -0.552 ± 0.13 | -0.308 ± 0.11 |
| GAAGAGCAAUAUUACGACCA | -1.34 ± 0.14 | -1.46 ± 0.36 |
| GCUCAGCAAUAUUACGUAGC | -1.23 ± 0.12 | -1.43 ± 0.16 |
| GGCCAGCAAUAUUACGUUUG | -3.15 ± 0.14 | -2.4 ± 0.18 |
| CUACAGCAAUAUUACGAUGU | -3.46 ± 0.17 | -2.44 ± 0.19 |
| UACGAGCAAUAUUACGAUAU | -2.39 ± 0.26 | -3.25 ± 0.37 |
| GGUUAGCAAUAUUACGUGUC | -1.03 ± 0.097 | -0.323 ± 0.12 |

| Sequence | self-splicing fitness (ln) (30 °C) | self-splicing fitness (ln) (37 °C) |
| --- | --- | --- |
| UACGAGCAAUAUUACGUAGC | -3.67 ± 0.46 | -1.01 ± 0.21 |
| UACAAGCAAUAUUACGCACC | -1.62 ± 0.14 | -1.42 ± 0.23 |
| GCAUAGCAAUAUUACGUACC | -0.706 ± 0.19 | -0.405 ± 0.26 |
| UUUUAGCAAUAUUACGAGCG | -1.02 ± 0.11 | -1.33 ± 0.1 |
| AAGCAGCAAUAUUACGGCGC | -0.59 ± 0.2 | -1.02 ± 0.19 |
| GCUGAGCAAUAUUACGAACG | -1.53 ± 0.18 | -1.12 ± 0.23 |
| AUGCAGCAAUAUUACGGAGG | -3.79 ± 0.2 | -2.07 ± 0.15 |
| GCAGAGCAAUAUUACGUGGA | -2.94 ± 0.4 | -3.35 ± 0.39 |
| AUAUAGCAAUAUUACGACCU | -0.348 ± 0.14 | 0.267 ± 0.15 |
| CCACAGCAAUAUUACGAUAU | -3.48 ± 0.2 | -2.01 ± 0.15 |
| UAAUAGCAAUAUUACGUCGU | -2.91 ± 0.34 | -0.94 ± 0.23 |
| CCUAAGCAAUAUUACGCUUG | -4.18 ± 0.36 | -2.98 ± 0.26 |
| CAGAAGCAAUAUUACGACGA | -1.52 ± 0.18 | -0.939 ± 0.17 |
| GCGGAGCAAUAUUACGAACG | -3.06 ± 0.29 | -2.41 ± 0.23 |
| CUGCAGCAAUAUUACGUAUU | -4.27 ± 0.18 | -3.51 ± 0.19 |
| CAUUAGCAAUAUUACGGUGU | -3.92 ± 0.2 | -3.76 ± 0.23 |
| AAUUAGCAAUAUUACGCCAA | -2.13 ± 0.18 | -1.25 ± 0.2 |
| UAGUAGCAAUAUUACGGUCG | -0.566 ± 0.097 | -0.103 ± 0.12 |
| CUAUAGCAAUAUUACGCGCU | -4.04 ± 0.36 | -2.61 ± 0.41 |
| UGCUAGCAAUAUUACGUACA | 0.0476 ± 0.1 | 0.533 ± 0.17 |
| GAGGAGCAAUAUUACGCGAG |  | -2.99 ± 0.35 |
| GCAUAGCAAUAUUACGUCAG | -2.47 ± 0.16 | -1.8 ± 0.23 |
| CUUGAGCAAUAUUACGUCUC | -3.07 ± 0.24 | -2.19 ± 0.27 |
| CUUCAGCAAUAUUACGUCGA | -4.35 ± 0.46 | -2.95 ± 0.3 |
| AACUAGCAAUAUUACGACCC |  | -0.568 ± 0.41 |

| Sequence | self-splicing fitness (ln) (30 °C) | self-splicing fitness (ln) (37 °C) |
| --- | --- | --- |
| AGUGAGCAAUAUUACGCCUA | -3 ± 0.3 | -0.802 ± 0.18 |
| UUUGAGCAAUAUUACGUGUC | -4.05 ± 0.42 | -2.79 ± 0.27 |
| AGUCAGCAAUAUUACGGGUA | -2.02 ± 0.15 | -1.54 ± 0.14 |
| GACCAGCAAUAUUACGGUAU | -1.29 ± 0.056 | -0.678 ± 0.068 |
| AAAAAGCAAUAUUACGAGCG | -0.337 ± 0.12 | -0.566 ± 0.11 |
| AUCCAGCAAUAUUACGUUUG | -2.58 ± 0.12 | -2.93 ± 0.18 |
| CUACAGCAAUAUUACGGUUA | -0.432 ± 0.092 | 0.11 ± 0.1 |
| UUUCAGCAAUAUUACGUGGC | -2.68 ± 0.15 | -2.94 ± 0.22 |
| CCUGAGCAAUAUUACGUCCU | -4.5 ± 0.39 |  |
| ACCAAGCAAUAUUACGGAGA | -3.16 ± 0.15 | -1.66 ± 0.11 |
| GGAAAGCAAUAUUACGGAGU | -3.76 ± 0.23 | -1.73 ± 0.18 |
| AGACAGCAAUAUUACGGUAU | -2.55 ± 0.1 | -0.734 ± 0.091 |
| UUUUAGCAAUAUUACGCGAU | -3.02 ± 0.34 | -1.97 ± 0.27 |
| UUAAAGCAAUAUUACGAUUG | -2.03 ± 0.11 | -0.734 ± 0.11 |
| GCGCAGCAAUAUUACGUGGU | -2.14 ± 0.081 | -1.02 ± 0.086 |
| AUAAAGCAAUAUUACGAGAA | -2.7 ± 0.19 | -1.85 ± 0.23 |
| AAGGAGCAAUAUUACGUAGG | -3.12 ± 0.22 | -2.02 ± 0.44 |
| AUAGAGCAAUAUUACGGUAU | -0.341 ± 0.075 | -0.0895 ± 0.11 |
| UGGGAGCAAUAUUACGCUUU |  | -2.01 ± 0.31 |
| UAUGAGCAAUAUUACGGACG | -2.79 ± 0.25 | -1.19 ± 0.23 |
| CUGAAGCAAUAUUACGGUAU | -3.66 ± 0.26 | -2.54 ± 0.28 |
| UGGCAGCAAUAUUACGUUCC | -2.02 ± 0.17 | -1.09 ± 0.18 |
